From publication PMC11910620 (Nature Communications, 2025)

T1: Msn5 (S. cerevisiae exportin), wild type (S. cerevisiae, UniProt P52918 1-1224)
T1 sequence: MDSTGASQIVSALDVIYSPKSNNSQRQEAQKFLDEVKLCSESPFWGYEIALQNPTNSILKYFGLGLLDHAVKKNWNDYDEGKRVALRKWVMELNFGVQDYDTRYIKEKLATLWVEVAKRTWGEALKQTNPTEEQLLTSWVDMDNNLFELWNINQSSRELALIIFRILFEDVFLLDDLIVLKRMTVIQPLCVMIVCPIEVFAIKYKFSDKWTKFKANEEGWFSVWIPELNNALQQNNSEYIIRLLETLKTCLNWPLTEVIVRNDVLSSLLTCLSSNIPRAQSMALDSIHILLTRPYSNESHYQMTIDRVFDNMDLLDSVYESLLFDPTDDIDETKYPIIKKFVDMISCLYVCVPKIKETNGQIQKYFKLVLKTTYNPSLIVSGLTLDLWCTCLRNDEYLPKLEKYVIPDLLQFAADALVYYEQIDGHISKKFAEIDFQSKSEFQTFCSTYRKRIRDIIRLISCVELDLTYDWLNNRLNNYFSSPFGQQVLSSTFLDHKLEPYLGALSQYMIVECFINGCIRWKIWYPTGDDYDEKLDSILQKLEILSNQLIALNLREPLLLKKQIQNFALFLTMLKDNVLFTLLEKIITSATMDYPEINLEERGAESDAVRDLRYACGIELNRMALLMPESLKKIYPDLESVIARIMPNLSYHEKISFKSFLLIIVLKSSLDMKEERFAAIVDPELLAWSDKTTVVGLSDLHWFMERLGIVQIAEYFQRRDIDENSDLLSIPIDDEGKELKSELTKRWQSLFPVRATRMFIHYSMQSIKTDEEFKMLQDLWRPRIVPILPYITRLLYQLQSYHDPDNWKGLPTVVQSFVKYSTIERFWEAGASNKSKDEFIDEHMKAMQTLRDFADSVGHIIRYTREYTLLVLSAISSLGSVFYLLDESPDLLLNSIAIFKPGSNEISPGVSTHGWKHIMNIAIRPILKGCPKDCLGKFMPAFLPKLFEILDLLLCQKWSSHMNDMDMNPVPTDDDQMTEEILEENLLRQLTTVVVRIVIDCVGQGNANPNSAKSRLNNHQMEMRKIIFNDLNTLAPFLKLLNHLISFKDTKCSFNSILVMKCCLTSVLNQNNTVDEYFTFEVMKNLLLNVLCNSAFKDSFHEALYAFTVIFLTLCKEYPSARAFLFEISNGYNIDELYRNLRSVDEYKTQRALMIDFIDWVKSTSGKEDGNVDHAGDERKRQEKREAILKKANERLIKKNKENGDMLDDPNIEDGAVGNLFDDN

B1: mNeonGreen-Pho4_(3-200), unphosphorylated (domain or fragment)
chain: RTTSEGIHGFVDDLEPKSSILDKVGDFITVNTKRHDGREDFNEQNDELNSQENHNSSENGNENENEQDSLALDDLDRAFELVEGMDMDWMMPSHAHHSPATTATIKPRLLYSPLIHTQSAVPVTISPNLVATATSTTSANKVTKNKSNSSPYLNKRRGKPGPDSATSLFELPDSVIPTPKPKPKPKQYPKVILPSNST
B2: mNeonGreen-pPho4_(3-200) R3mut (domain or fragment)
chain: RTTSEGIHGFVDDLEPKSSILDKVGDFITVNTKRHDGREDFNEQNDELNSQENHNSSENGNENENEQDSLALDDLDRAFELVEGMDMDWMMPSHAHHSPATTATIKPRLLYSPLIHTQSGGSGGSSPNLVATATSTTSANKVTKNKSNSSPYLNKRRGKPGPDSATSLFELPDSVIPTPKPKPKPKQYPKVILPSNST
modifications: phosphorylated in vitro by Pho80-Pho85: pS100, pS114, pS128, pS152
B3: mNeonGreen-pPho4_(3-200) S114/128AA (domain or fragment)
chain: RTTSEGIHGFVDDLEPKSSILDKVGDFITVNTKRHDGREDFNEQNDELNSQENHNSSENGNENENEQDSLALDDLDRAFELVEGMDMDWMMPSHAHHSPATTATIKPRLLYAPLIHTQSAVPVTIAPNLVATATSTTSANKVTKNKSNSSPYLNKRRGKPGPDSATSLFELPDSVIPTPKPKPKPKQYPKVILPSNST
modifications: phosphorylated in vitro by Pho80-Pho85: pS100, pS152
B4: mNeonGreen-pPho4_(3-200) S128A (domain or fragment)
chain: RTTSEGIHGFVDDLEPKSSILDKVGDFITVNTKRHDGREDFNEQNDELNSQENHNSSENGNENENEQDSLALDDLDRAFELVEGMDMDWMMPSHAHHSPATTATIKPRLLYSPLIHTQSAVPVTIAPNLVATATSTTSANKVTKNKSNSSPYLNKRRGKPGPDSATSLFELPDSVIPTPKPKPKPKQYPKVILPSNST
modifications: phosphorylated in vitro by Pho80-Pho85: pS100, pS114, pS152
B5: mNeonGreen-pPho4_(3-200) R4mut (L131A/T134A) (domain or fragment)
chain: RTTSEGIHGFVDDLEPKSSILDKVGDFITVNTKRHDGREDFNEQNDELNSQENHNSSENGNENENEQDSLALDDLDRAFELVEGMDMDWMMPSHAHHSPATTATIKPRLLYSPLIHTQSAVPVTISPNAVAAATSTTSANKVTKNKSNSSPYLNKRRGKPGPDSATSLFELPDSVIPTPKPKPKPKQYPKVILPSNST
modifications: phosphorylated in vitro by Pho80-Pho85: pS100, pS114, pS128, pS152
B6: mNeonGreen-pPho4_(3-200) S100/152AA (domain or fragment)
chain: RTTSEGIHGFVDDLEPKSSILDKVGDFITVNTKRHDGREDFNEQNDELNSQENHNSSENGNENENEQDSLALDDLDRAFELVEGMDMDWMMPSHAHHAPATTATIKPRLLYSPLIHTQSAVPVTISPNLVATATSTTSANKVTKNKSNSAPYLNKRRGKPGPDSATSLFELPDSVIPTPKPKPKPKQYPKVILPSNST
modifications: phosphorylated in vitro by Pho80-Pho85: pS114, pS128
B7: mNeonGreen-pPho4_(3-200) R2mut (domain or fragment)
chain: RTTSEGIHGFVDDLEPKSSILDKVGDFITVNTKRHDGREDFNEQNDELNSQENHNSSENGNENENEQDSLALDDLDRAFELVEGMDMDWMMPSHAHHSPATTATIKPRLLGSPGGSGQSAVPVTISPNLVATATSTTSANKVTKNKSNSSPYLNKRRGKPGPDSATSLFELPDSVIPTPKPKPKPKQYPKVILPSNST
modifications: phosphorylated in vitro by Pho80-Pho85: pS100, pS114, pS128, pS152
B8: mNeonGreen-pPho4_(3-200) S114A (domain or fragment)
chain: RTTSEGIHGFVDDLEPKSSILDKVGDFITVNTKRHDGREDFNEQNDELNSQENHNSSENGNENENEQDSLALDDLDRAFELVEGMDMDWMMPSHAHHSPATTATIKPRLLYAPLIHTQSAVPVTISPNLVATATSTTSANKVTKNKSNSSPYLNKRRGKPGPDSATSLFELPDSVIPTPKPKPKPKQYPKVILPSNST
modifications: phosphorylated in vitro by Pho80-Pho85: pS100, pS128, pS152
B9: mNeonGreen-pPho4_(3-200) 102–107GKK (domain or fragment)
chain: RTTSEGIHGFVDDLEPKSSILDKVGDFITVNTKRHDGREDFNEQNDELNSQENHNSSENGNENENEQDSLALDDLDRAFELVEGMDMDWMMPSHAHHSPGKKGKKKPRLLYSPLIHTQSAVPVTISPNLVATATSTTSANKVTKNKSNSSPYLNKRRGKPGPDSATSLFELPDSVIPTPKPKPKPKQYPKVILPSNST
modifications: phosphorylated in vitro by Pho80-Pho85: pS100, pS114, pS128, pS152
B10: Msn5 (S. cerevisiae exportin), wild type (natural protein)
chain: MDSTGASQIVSALDVIYSPKSNNSQRQEAQKFLDEVKLCSESPFWGYEIALQNPTNSILKYFGLGLLDHAVKKNWNDYDEGKRVALRKWVMELNFGVQDYDTRYIKEKLATLWVEVAKRTWGEALKQTNPTEEQLLTSWVDMDNNLFELWNINQSSRELALIIFRILFEDVFLLDDLIVLKRMTVIQPLCVMIVCPIEVFAIKYKFSDKWTKFKANEEGWFSVWIPELNNALQQNNSEYIIRLLETLKTCLNWPLTEVIVRNDVLSSLLTCLSSNIPRAQSMALDSIHILLTRPYSNESHYQMTIDRVFDNMDLLDSVYESLLFDPTDDIDETKYPIIKKFVDMISCLYVCVPKIKETNGQIQKYFKLVLKTTYNPSLIVSGLTLDLWCTCLRNDEYLPKLEKYVIPDLLQFAADALVYYEQIDGHISKKFAEIDFQSKSEFQTFCSTYRKRIRDIIRLISCVELDLTYDWLNNRLNNYFSSPFGQQVLSSTFLDHKLEPYLGALSQYMIVECFINGCIRWKIWYPTGDDYDEKLDSILQKLEILSNQLIALNLREPLLLKKQIQNFALFLTMLKDNVLFTLLEKIITSATMDYPEINLEERGAESDAVRDLRYACGIELNRMALLMPESLKKIYPDLESVIARIMPNLSYHEKISFKSFLLIIVLKSSLDMKEERFAAIVDPELLAWSDKTTVVGLSDLHWFMERLGIVQIAEYFQRRDIDENSDLLSIPIDDEGKELKSELTKRWQSLFPVRATRMFIHYSMQSIKTDEEFKMLQDLWRPRIVPILPYITRLLYQLQSYHDPDNWKGLPTVVQSFVKYSTIERFWEAGASNKSKDEFIDEHMKAMQTLRDFADSVGHIIRYTREYTLLVLSAISSLGSVFYLLDESPDLLLNSIAIFKPGSNEISPGVSTHGWKHIMNIAIRPILKGCPKDCLGKFMPAFLPKLFEILDLLLCQKWSSHMNDMDMNPVPTDDDQMTEEILEENLLRQLTTVVVRIVIDCVGQGNANPNSAKSRLNNHQMEMRKIIFNDLNTLAPFLKLLNHLISFKDTKCSFNSILVMKCCLTSVLNQNNTVDEYFTFEVMKNLLLNVLCNSAFKDSFHEALYAFTVIFLTLCKEYPSARAFLFEISNGYNIDELYRNLRSVDEYKTQRALMIDFIDWVKSTSGKEDGNVDHAGDERKRQEKREAILKKANERLIKKNKENGDMLDDPNIEDGAVGNLFDDN

The molecules below were run against T1, Msn5 (S. cerevisiae exportin), wild type (assay: fluorescence polarisation). Details: not given.
With B1 the Kd was 2400 nM. In the case of B2, the Kd is reported as 280 nM. B3 showed a Kd of 1000 nM. B4 was tested, and the Kd was 120 nM. Molecule B5 has a Kd of 150 nM. Work on B6 yielded a Kd of 46 nM. B7 was tested, and the Kd was 800 nM. For B8, the Kd was 250 nM. Work on B9 yielded a Kd of 110 nM.

What follows are molecules tested against Msn5 (Kap142) (UniProt P52918) (assay: fluorescence polarization titration, mNeonG-pPho4). Details: reference: wild-type pPho4; sites S114.
In the case of “Pho4 3-200 (from UniProt P07270) pPho4 S114A”, the KD is reported as “weaker; reference 44[26,71]”.

The molecules below were run against Pho4_(1-200) S114/128DD and Pho4_(1-200) S114/128EE (assay: fluorescence polarisation). Details: not given.
Molecule B10 has a Kd of 2000 to 3000 nM.
